# Experimental data: patent publication US20100323375
# What was measured:
# FLAG-APP = FLAG-APP (UniProt P05067)
# FLAG-Alcalpha = tested on: T1, FLAG-Alcalpha
# T1 sequence 1: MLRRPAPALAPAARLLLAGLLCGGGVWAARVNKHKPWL
# T1 sequence 2: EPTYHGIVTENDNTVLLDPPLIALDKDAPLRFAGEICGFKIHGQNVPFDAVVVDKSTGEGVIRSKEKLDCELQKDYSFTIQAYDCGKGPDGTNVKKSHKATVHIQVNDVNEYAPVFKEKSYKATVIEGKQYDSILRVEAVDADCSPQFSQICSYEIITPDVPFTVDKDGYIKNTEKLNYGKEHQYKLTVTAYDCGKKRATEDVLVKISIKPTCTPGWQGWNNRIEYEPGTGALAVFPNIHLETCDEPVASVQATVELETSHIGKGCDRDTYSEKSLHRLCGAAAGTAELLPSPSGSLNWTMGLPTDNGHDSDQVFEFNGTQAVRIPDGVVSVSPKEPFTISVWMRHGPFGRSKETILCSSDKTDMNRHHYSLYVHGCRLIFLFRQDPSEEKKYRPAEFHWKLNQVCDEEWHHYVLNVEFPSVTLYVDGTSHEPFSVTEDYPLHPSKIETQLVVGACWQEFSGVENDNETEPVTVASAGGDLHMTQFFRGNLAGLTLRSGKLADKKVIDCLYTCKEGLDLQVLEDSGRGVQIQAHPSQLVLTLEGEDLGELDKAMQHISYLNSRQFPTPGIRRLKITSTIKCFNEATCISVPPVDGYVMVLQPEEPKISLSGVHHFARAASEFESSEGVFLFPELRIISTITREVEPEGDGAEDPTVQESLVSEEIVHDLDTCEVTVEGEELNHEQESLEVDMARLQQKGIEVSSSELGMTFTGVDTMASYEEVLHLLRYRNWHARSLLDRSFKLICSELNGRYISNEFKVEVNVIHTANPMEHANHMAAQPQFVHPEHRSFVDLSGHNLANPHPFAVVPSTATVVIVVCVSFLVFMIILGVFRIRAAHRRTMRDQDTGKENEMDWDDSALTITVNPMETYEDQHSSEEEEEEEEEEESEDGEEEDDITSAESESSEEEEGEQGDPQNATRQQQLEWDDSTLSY
# FLAG-Alcbeta = tested on: T2, FLAG-Alcbeta
# T2 sequence 1: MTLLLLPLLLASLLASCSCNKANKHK
# T2 sequence 2: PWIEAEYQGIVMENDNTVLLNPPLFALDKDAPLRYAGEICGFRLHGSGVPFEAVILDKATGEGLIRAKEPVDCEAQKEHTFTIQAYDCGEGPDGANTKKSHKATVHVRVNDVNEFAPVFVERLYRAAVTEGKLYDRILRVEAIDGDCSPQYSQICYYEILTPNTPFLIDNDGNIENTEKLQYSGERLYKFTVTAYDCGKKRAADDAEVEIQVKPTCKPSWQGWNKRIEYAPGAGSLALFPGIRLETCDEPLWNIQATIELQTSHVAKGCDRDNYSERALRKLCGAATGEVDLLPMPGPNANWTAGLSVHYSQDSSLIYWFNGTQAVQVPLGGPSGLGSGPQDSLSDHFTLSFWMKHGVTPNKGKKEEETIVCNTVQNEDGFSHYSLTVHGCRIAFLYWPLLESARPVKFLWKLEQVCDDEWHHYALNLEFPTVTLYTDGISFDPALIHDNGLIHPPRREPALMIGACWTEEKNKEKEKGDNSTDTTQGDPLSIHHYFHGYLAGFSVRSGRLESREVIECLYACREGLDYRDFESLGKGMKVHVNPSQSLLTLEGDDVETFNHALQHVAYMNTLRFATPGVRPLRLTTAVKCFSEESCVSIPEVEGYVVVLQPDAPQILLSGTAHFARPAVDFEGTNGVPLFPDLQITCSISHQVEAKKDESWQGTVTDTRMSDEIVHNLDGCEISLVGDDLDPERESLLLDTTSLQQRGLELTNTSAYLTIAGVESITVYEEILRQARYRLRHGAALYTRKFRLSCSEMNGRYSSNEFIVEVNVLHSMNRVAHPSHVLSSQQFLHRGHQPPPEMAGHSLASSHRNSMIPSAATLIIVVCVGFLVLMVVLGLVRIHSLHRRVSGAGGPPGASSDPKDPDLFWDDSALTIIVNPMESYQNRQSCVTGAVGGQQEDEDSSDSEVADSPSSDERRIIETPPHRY
# FLAG-Alcgamma = tested on: T3, FLAG-Alcgamma
# T3 sequence 1: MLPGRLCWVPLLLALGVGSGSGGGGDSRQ
# T3 sequence 2: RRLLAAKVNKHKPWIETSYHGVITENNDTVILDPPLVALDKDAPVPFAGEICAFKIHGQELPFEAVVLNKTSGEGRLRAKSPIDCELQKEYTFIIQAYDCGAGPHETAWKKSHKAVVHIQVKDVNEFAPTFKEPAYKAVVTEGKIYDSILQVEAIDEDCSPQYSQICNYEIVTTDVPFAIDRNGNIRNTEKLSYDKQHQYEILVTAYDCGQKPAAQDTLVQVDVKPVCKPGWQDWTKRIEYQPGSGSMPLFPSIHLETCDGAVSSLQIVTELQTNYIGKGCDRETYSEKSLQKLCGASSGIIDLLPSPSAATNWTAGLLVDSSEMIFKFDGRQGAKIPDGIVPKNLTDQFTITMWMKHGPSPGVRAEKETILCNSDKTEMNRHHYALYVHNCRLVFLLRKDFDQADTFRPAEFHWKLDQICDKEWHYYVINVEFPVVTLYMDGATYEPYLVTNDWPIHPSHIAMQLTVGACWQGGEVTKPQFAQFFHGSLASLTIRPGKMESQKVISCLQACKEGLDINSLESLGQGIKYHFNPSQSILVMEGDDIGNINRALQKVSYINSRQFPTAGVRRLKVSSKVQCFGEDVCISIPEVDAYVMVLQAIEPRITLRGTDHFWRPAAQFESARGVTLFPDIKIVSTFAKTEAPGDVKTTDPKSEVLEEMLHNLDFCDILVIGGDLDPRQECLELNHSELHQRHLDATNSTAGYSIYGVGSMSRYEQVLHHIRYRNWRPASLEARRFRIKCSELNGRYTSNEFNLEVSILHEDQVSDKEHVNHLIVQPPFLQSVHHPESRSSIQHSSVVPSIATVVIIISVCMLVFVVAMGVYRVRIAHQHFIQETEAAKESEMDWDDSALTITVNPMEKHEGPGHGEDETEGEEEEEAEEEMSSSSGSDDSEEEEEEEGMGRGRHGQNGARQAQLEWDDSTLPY
# Sequence of ADAM10-HA (O14672 whole entry): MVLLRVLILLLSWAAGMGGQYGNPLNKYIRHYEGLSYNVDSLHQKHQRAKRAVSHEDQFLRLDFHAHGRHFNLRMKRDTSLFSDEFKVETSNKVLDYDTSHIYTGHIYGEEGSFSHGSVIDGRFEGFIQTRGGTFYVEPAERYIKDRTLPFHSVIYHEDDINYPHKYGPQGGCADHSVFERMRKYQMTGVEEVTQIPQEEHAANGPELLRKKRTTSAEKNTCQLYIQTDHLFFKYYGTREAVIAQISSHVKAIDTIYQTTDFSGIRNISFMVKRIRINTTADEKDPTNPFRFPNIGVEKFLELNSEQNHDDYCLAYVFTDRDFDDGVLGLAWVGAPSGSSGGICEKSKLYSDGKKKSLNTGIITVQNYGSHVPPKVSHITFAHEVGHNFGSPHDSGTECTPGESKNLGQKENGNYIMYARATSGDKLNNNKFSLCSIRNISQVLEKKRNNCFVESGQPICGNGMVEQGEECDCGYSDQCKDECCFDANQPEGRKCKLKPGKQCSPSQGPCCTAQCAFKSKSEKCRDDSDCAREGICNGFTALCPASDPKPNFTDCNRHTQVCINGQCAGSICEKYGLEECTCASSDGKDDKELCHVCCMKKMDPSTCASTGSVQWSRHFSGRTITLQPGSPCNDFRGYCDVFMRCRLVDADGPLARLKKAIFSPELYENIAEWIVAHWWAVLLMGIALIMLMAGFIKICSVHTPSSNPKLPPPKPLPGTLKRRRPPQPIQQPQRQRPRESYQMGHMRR
# Sequence of FLAG-APP (P05067 whole entry, looked up): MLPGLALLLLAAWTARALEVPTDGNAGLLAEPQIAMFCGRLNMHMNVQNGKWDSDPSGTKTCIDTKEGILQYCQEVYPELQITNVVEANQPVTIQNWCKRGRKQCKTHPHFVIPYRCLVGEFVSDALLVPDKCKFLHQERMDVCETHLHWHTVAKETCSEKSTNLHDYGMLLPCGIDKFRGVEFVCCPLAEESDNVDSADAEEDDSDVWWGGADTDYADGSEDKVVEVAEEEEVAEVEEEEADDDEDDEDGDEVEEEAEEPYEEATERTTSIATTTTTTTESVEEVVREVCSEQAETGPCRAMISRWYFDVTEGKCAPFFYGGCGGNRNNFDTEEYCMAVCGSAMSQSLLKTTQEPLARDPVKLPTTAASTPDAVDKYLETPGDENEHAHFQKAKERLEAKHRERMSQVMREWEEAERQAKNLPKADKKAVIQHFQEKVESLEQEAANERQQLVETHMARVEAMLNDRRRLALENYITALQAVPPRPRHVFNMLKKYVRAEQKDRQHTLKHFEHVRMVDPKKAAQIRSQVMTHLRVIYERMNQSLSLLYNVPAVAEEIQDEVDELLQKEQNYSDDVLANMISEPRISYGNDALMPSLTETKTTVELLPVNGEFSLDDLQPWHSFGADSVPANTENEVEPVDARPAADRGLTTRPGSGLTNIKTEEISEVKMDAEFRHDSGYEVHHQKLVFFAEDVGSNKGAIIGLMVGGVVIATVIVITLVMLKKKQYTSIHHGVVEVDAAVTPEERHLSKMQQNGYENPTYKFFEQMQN
substance,measurement,setting,value
ADAM10-HA,amount of sAPP secreted by ADAM (-/-) MEFs with exogenous ADAM10 against without,FLAG-APP,about 1.7 fold over that of sAPP secreted by ADAM (-/-) MEFs
same,amount of sAlcalpha secreted by ADAM (-/-) MEFs with exogenous ADAM10,FLAG-Alcalpha,"The amounts of sAlcalpha, sAlcbeta, and sAlcgamma secreted by ADAM (-/-) MEFs were restored in response to the expression of exogenous ADAM10"
same,amount of sAlcbeta secreted by ADAM (-/-) MEFs with exogenous ADAM10,FLAG-Alcbeta,"The amounts of sAlcalpha, sAlcbeta, and sAlcgamma secreted by ADAM (-/-) MEFs were restored in response to the expression of exogenous ADAM10"
same,amount of sAlcgamma secreted by ADAM (-/-) MEFs with exogenous ADAM10,FLAG-Alcgamma,"The amounts of sAlcalpha, sAlcbeta, and sAlcgamma secreted by ADAM (-/-) MEFs were restored in response to the expression of exogenous ADAM10"
